Results reported in patent US20100210517A1.
Positions of bridges follow the written chain, without caps; N, C: chain ends. No end group written: not given here.

Biological target: recombinant human LRP1 ligand binding cluster II (amino acids 786-1165, C-terminal Fc) (human)
Assay: solid-phase binding assay, receptor coated on plate

Sequence of recombinant human LRP1 ligand binding cluster II (amino acids 786-1165, C-terminal Fc) (human) (Q07954 786-1165): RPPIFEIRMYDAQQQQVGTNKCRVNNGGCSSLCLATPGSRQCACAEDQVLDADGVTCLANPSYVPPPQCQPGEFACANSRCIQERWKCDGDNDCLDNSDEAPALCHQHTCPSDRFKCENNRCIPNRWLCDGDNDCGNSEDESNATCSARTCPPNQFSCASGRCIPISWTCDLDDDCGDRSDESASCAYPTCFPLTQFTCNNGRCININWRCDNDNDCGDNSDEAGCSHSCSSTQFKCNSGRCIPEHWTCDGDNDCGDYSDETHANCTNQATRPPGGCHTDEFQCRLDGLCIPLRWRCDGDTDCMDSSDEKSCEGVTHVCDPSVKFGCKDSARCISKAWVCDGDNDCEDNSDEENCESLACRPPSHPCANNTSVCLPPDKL

Kd | Binder
21 nM | mRAP-14c (disulfide 1-60) peptide: CEAKIEKHNHYQKQLEIAHEKLRHAESVGDGERVSRSREKHALLEGRTKELGYTVKKHGC
4 to 6 nM | mRAP-8c (disulfide 1-67 (inferred)) peptide: CGKHFEAKIEKHNHYQKQLEIAHEKLRHAESVGDGERVSRSREKHALLEGRTKELGYTVKKHLQDGC
3.5 nM | Heptide (disulfide 1-67 (inferred)) peptide: CGKHFEAKIEKHNHYQKQLEIAHEKLRHAESVGDAERVSRSREKHALLEGRTKELGYTVKKHLQDACG
